B1: CREB-regulated transcription coactivator 2 (Mus musculus), Q3U182 (parent)
chain: MATSGANGPGSATASASNPRKFSEKIALQKQRQAEETAAFEEVMMDIGSTRLQAQKLRLAYTRSSHYGGSLPNVNQIGCGLAEFQSPLHSPLDSSRSTRHHGLVERVQRDARRMVSPLRRYPRHIDSSPYSPAYLSPPPESGWRRMMPWGNLPAEKGQLFRLPSALNRTSSDSALHTSVMNPNPQDTYPGPTPPSVLPSRRGGGFLDGEMDAKVPAIEENVVDDKHLLKPWDAKKLSSSSSRPRSCEVPGINIFPSPDQPANVPVLPPAMNTGGSLPDLTNLHFPPPLPTPLDPEETVYPSLSGGNSTTNLTHTMTHLGISGGLGLGPSYDVPGLHSPLSHPSLQSSLSNPNLQASLSSPQPQLQGSHSHPSLPASSLAHHALPTTSLGHPSLSAPALSSSSSSSSTSSPVLSAPPYPASTPGASPRHRRVPLSPLSLPAGPADARRSQQQLPKQFSPTMSPTLSSITQGVPLDTSKLPTDQRLPPYPYSPPSLVIPTHPPTPKSLQQLPSQACLVQPSGGQPPGRQPHYGALYPPGSSGHGQQPYHRPINDFSLGNLEQFNMESPSTSLVLDPPAFSEGPGFLGSEGSMSGPQDPHVLNHQNLTHCSRHGSGPNIILTGDSSPGFSKEIAAALAGVPGFEVSASGLELGLGLEDELRMEPLGLEGLTMLSDPCALLPDPAVEDSFRSDRLQ

Variants of: B1
Settings: with cop1_mouse Cop1, Q9R1A8
Chain of cop1_mouse Cop1, Q9R1A8 (Q9R1A8 whole entry): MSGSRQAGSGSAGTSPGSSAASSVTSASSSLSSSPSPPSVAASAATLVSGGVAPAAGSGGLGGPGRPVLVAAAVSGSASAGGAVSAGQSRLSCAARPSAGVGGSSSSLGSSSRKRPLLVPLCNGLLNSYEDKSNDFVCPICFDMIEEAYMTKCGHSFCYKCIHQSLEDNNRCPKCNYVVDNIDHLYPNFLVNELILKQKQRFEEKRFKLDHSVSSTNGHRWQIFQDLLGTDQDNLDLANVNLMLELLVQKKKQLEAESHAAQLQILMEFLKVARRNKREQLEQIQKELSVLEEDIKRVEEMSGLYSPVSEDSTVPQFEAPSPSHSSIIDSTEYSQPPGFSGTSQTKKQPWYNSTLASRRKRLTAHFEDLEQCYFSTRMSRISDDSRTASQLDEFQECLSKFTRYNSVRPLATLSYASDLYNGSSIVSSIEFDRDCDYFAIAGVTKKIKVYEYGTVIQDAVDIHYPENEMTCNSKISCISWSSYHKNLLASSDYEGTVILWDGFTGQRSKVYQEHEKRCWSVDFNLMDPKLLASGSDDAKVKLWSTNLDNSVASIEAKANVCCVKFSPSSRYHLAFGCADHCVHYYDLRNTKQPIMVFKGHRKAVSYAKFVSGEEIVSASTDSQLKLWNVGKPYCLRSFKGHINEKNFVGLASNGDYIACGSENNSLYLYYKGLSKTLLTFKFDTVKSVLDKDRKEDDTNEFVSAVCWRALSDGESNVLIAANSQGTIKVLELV

Variant	effect of a mutation on the interaction
V214A;P215A	disrupting interaction strength
